Measurements taken from article PMC11464762, “AXIN1 boosts antiviral response through IRF3 stabilization and induced phase separation” (Signal Transduction and Targeted Therapy, 2024).

Target: T1, GST-IRF3-IR (GST-tagged IRF3 IR domain) (GST carrier left out. Limits are not printed: the paired constructs IRF3-DP and IRF3-IR are read as DBD + proline-rich region and IAD + C-terminal regulatory (response) region. The IR start at about r)
T1 chain: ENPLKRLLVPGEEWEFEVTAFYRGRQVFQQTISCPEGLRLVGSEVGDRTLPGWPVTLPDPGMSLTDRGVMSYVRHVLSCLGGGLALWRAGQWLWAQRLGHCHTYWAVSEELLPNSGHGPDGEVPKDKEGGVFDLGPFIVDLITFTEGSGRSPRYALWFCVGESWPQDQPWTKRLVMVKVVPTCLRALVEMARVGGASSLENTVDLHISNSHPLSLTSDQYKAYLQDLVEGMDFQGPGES
Test: ELISA; cell-free; purified GST-IRF3-IR and His-AXIN1-RGS (n = 3); which one was coated is not told
Conditions: both partners purified

EC50: 1.72 nM
B1: His-AXIN1-RGS (His-tagged AXIN1 RGS domain) (domain or fragment, UniProt O15169 88-211, looked up)
chain: SLHSLLDDQDGISLFRTFLKQEGCADLLDFWFACTGFRKLEPCDSNEEKRLKLARAIYRKYILDNNGIVSRQTKPATKSFIKGCIMKQLIDPAMFDQAQTEIQATMEENTYPSFLKSDIYLEYT
notes: RGS domain of AXIN1; source: purified
